{"source": "patent US12269880B2", "about": "“LAG3 binding peptides” (Leidos, Inc., priority 2019, dated 2025)", "key": {"[1]": {"target": "T1, LAG3/MHC-II interaction (Homo sapiens, UniProt P18627)", "T1 construct": "purchased Cisbio US Inc", "T1 sequence (P18627 23-450 limits assumed)": "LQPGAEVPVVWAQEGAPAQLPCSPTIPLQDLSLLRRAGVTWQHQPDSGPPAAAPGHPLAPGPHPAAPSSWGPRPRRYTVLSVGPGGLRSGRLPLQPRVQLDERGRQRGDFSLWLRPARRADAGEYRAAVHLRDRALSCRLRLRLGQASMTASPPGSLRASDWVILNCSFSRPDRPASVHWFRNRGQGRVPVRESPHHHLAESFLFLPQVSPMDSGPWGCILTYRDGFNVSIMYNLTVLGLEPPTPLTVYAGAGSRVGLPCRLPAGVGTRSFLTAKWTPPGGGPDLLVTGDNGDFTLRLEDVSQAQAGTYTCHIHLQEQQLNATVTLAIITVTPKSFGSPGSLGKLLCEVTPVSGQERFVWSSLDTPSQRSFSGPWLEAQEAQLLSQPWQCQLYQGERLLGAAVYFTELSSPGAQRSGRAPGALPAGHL", "test": "HTRF LAG3/MHC-II binding assay (Cisbio)", "from_the_text": "FIG. 2 is a graph showing the results of a homogeneous time-resolved fluorescence (HTRF) assay for peptide LAG3-11. Reference Ab-LAG3 is an anti-LAG3 antibody. OVA, the ovalbumin (OVA) peptide (ISQAVHAAHAEINEAGR, SEQ ID NO:8). “HTRF ratio” is the emission at 665 nm (acceptor)/emission at 620 nm (donor) multiplied by a factor or 10^4.\nA homogeneous time-resolved fluorescence (HTRF) LAG3/MHC-II binding assay (Cisbio US Inc.) was used to measure the interaction between MHC-II and LAG3 in the presence of peptides. In this assay, the interaction between Tag1-LAG3 and Tag2-MHC-II is detected by using anti-Tag1-Terbium (HTRF donor) and anti-Tag2-XL665 (HTRF acceptor). When the donor and acceptor antibodies are brought into close proximity due to LAG3 and MHC-II binding, excitation of the donor antibody triggers fluorescent resonance energy transfer (FRET) towards the acceptor antibody, which in turn emits specifically at 665 nm. This specific signal is directly proportional to the extent of LAG3/MHC-II interaction. Thus, an agent that blocks the interaction between LAG3 and MHC-II will cause a reduction in HTRF ratio.\nAn anti-human LAG3 antibody (Novoprotein #GMP-A092, Lot 0331158, 500 nM) was tested in the assay at an eleven-point, serially diluted semi-log dose response curve starting at 100 nM and served as a positive control. The ovalbumin peptide was used as a negative control. Peptides were reconstituted at a concentration of 20 mM in […] and tested at an eleven-point dose response curve starting at 100 µM followed by 4-fold dilutions. […]"}, "[2]": {"target": "T2, soluble recombinant human LAG3 (Homo sapiens, UniProt P18627)", "T2 construct": "soluble recombinant human LAG3", "T2 sequence (P18627 23-450 limits assumed)": "T1 sequence (P18627 23-450 limits assumed)", "test": "Clonal phage ELISA after phage display bio-panning", "type": "binding", "from_the_text": "The TriCo-20™, TriCo-16™, Ph.D.-12™, and Ph.D. C7™ Phage Display Peptide Libraries (Creative Biolabs, 45-1 Ramsey Road, Shirley, NY 11967) were screened by performing several rounds of bio-panning to identify binders of soluble recombinant human LAG3."}, "[3]": {"target": "T3, human LAG3/FGL1 (Homo sapiens, UniProt P18627)", "T3 construct": "purchased BPS Bioscience", "T3 sequence (P18627 23-450 limits assumed)": "T1 sequence (P18627 23-450 limits assumed)", "test": "Human LAG3/FGL1 TR-FRET binding assay (BPS Bioscience)", "experimental": "The peptides were tested using a human LAG3/FGL1 TR-FRET binding assay (BPS Bioscience) carried out according to the manufacturer's instructions.\nPeptide stocks of LAG3-11, LAG3-42, LAG3-48, LAG3-51, LAG3-54, LAG3-56, LAG3-60 and OVA were prepared at 1 mM followed by a 1:5 dilution in plate reactions. LAG3-11 and OVA were tested at 200, 50, 13, 3, 0.8, 0.2, 0.05, and 0.01 μM. The other peptides were tested at 200, 50, 13, and 3 μM. A neutralizing anti-human LAG3 antibody (BPS Bioscience Cat. #71219) was used as a positive control.\nReaction mixes were incubated 1 hr at RT before development. After development, plate was read in a Tecan M1000 TR-FRET instrument. Percent activity was calculated as follows: % Activity=100×[(sample−minimum)/(maximum−minimum)]"}, "[4]": {"test_system": "interaction with LAG3 and its ligand MHC-II", "test": "Cell-based NFAT-luc2P luciferase reporter assay, LAG3 Jurkat / MHC-II Raji co-culture", "parameters": "species or system human", "details": "RLUs at 100 µM compared to RLUs at 0.64 µM", "from_the_text": "A cell-based reporter assay was used to assess whether binding of the seven peptides identified above was sufficient to block the interaction with LAG3 and its ligand MHC-II. The components of the assay include (1) a Jurkat T cell line that stably expresses human LAG3 and a stable NFAT-luc2P luciferase reporter, (2) a Raji cell line that expresses human MHC-II, and (3) a positive control anti-LAG3 antibody that blocks the interaction of LAG3 and MHC-II. In brief, Jurkat cells expressing LAG3 are stimulated with a T cell receptor (TCR) activator molecule, resulting in expression of luciferase. When the Jurkat cells are co-cultured with an a Raji cell line expressing the MHC-II molecule, the interaction of LAG3 on the surface of a Jurkat cell with MHC-II on the surface of a Raji cell inhibits T cell activation, leading to a reduction in luciferase expression. The addition of a neutralizing antibody against LAG3 blocks the inhibition signal and allows luciferase expression to proceed. BIO-GLO™ (Promega) was used to measure luciferase expression. The seven LAG3 peptides were tested at concentrations of 0, 0.64, 1.6, 4, 10, 25, & 100 µM.\nResults of the assay testing the seven LAG3 peptides identified above and a negative control peptide ([…]; SEQ ID NO:9) are shown in FIG. 1B."}, "[5]": {"test_system": "human peripheral blood mononuclear cell (PBMC)", "test": "Human PBMC-based recall assay (EBV and CMV viral-specific peptides)", "type": "cell-based", "details": "seven days post-stimulation", "experimental": "PBMCs were obtained from a human donor who had previously been identified as a positive responder to Epstein-Barr virus (EBV) and Cytomegalovirus (CMV) viral-specific peptides. 5×10^5 PBMCs in 200 μL of media were stimulated with EBV and CMV viral-specific peptides in the presence or absence of LAG3-11. Seven days post-stimulation, the percentage of virus-specific CD8+ T cells were identified via flow cytometry using MHC-I tetramers. Supernatants were also collected and the amount of […] determined via ELISA."}}, "note": "“And” between values parts separate entries of the source, which are not always exact repeats. Equal values may be shown once.", "data": [{"sequence": "SAPWEPLHWPEDWWQGTGEW (LAG3-11 peptide)", "values": [{"measurement": "HTRF ratio", "setting": "[1]; LOG [Compound] M tested for peptide −4, single replicates", "result": "3213 and 3460 and 3458"}, {"measurement": "HTRF ratio", "setting": "[1]; LOG [Compound] M tested for peptide −4.60206, single replicates", "result": "4749 and 5287 and 5014"}, {"measurement": "HTRF ratio", "setting": "[1]; LOG [Compound] M tested for peptide −5.20412, single replicates", "result": "6812 and 6892 and 6696"}, {"measurement": "HTRF ratio", "setting": "[1]; LOG [Compound] M tested for peptide −5.80618, single replicates", "result": "7774 and 8164 and 7993"}, {"measurement": "HTRF ratio", "setting": "[1]; LOG [Compound] M tested for peptide −6.40824", "result": "8538 and 8718 and 8858"}, {"measurement": "HTRF ratio", "setting": "[1]; LOG [Compound] M tested for peptide −7.0103, single replicates", "result": "8794 and 8729 and 8889"}, {"measurement": "HTRF ratio", "setting": "[1]; LOG [Compound] M tested for peptide −7.61236, single replicates", "result": "9090 and 9036 and 9329"}, {"measurement": "HTRF ratio", "setting": "[1]; LOG [Compound] M tested for peptide −8.21442, single replicates", "result": "9012 and 9293 and 9067"}, {"measurement": "HTRF ratio", "setting": "[1]; LOG [Compound] M tested for peptide −8.81648, single replicates", "result": "8877 and 8955 and 8992"}, {"measurement": "HTRF ratio", "setting": "[1]; LOG [Compound] M tested for peptide −9.41854, single replicates", "result": "8591 and 6950 and 8287"}, {"measurement": "HTRF ratio", "setting": "[1]; LOG [Compound] M tested for peptide −10.0206", "result": "8212 and 8748 and 8700"}, {"measurement": "HTRF ratio", "setting": "[1]; LOG [Compound] M tested for peptide −10.6227", "result": "8886 and 8842 and 9097"}, {"measurement": "disruption of LAG3 and MHC-II interaction", "setting": "[1]; four independent experiments", "result": "disrupts the interaction of LAG3 and MHC-II"}, {"measurement": "Clonal Phase ELISA coated signal", "setting": "[2]; coated", "result": 0.271}, {"measurement": "Clonal Phase ELISA uncoated signal", "setting": "[2]; uncoated (background)", "result": 0.093}, {"measurement": "inhibition of the interaction between human LAG3 and FGL1", "setting": "[3]", "result": "inhibit the interaction between human LAG3 and FGL1"}, {"measurement": "fold inhibition (fold increase in luciferase activity)", "setting": "[4]", "result": "approximately 2.8 fold"}, {"measurement": "increase of IFN-7 secretion by human PBMCs", "setting": "[5]; relative to the viral-specific peptides alone, ELISA", "result": 3, "unit": "fold"}, {"measurement": "increase in percentage of tetramer+ CD8 T cells", "setting": "[5]; flow cytometry, MHC-I tetramers", "result": "~2", "unit": "fold"}]}]}
